Laboratory results: patent US20240239894A1, “THERAPEUTIC BINDING MOLECULES” (MedImmune Limited, priority 2020, published 2024)

How the values were obtained:
[1] = target: human B7-H4 on cells (human) (UniProt Q7Z7D3); test: flow cytometry, AF647-labelled antibody at 312 ng/ml, SKBR-3 cells
[2] = target: human B7-H4 on cells (human) (UniProt Q7Z7D3); test: flow cytometry, AF647-labelled antibody at 78 ng/ml, SKBR-3 cells

human B7-H4 on cells (human), sequence (Q7Z7D3 25-282 limits assumed): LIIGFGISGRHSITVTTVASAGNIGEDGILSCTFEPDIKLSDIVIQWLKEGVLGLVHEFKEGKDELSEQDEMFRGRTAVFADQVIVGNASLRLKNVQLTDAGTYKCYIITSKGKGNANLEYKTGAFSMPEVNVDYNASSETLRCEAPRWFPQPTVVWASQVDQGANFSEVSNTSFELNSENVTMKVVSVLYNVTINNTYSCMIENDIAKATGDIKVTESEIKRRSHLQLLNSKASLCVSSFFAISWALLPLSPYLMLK

“R347-maia human IgG1 (isotype control) (antibody)” showed a Geometric Mean : Comp-APC-A [1] of 121 and a Geometric Mean : Comp-APC-A [2] of 101.
